Laboratory results as given in the RNAGym collection of RNA variant scans (doi:10.1021/acssynbio.7b00057).

B1: Pistol ribozyme (parent)
chain: GGGUCGUUGUUCCAUAAUCGCGUGGAUAUGGCACGCAAGUUUCUACCGGGCACCGUAAAUGUCCGACUGGAGCCGUUCGGGCGGCUAUAAACAGACCUCAGGCCCGAAGCGUGGCGGCACCUGCCGCCGGUGGUAAAAAAGAUCGGAAGAGCACACGUCU

Variants of: B1
Experiment: aptazyme ON/OFF ratio, guanine; higher = stronger switching; co-transcriptional cleavage with and without guanine

| Variant | aptazyme ON/OFF ratio |
| --- | --- |
| GGGUCGGUCCUUCAUAAUCGCGUGGAUAUGGCACGCAAGUUUCUACCGGGCACCGUAAAUGUCCGACUGGAGCCGUUCGGGCGGCUAUAAACAGACCUCAGGCCCGAAGCGUGGCGGCACCUGCCGCCGGUGGUAAAAAAGAUCGGAAGAGCACACGUCU | 1.7 |
| GGGUCGGUCCUACAUAAUCGCGUGGAUAUGGCACGCAAGUUUCUACCGGGCACCGUAAAUGUCCGACUGGAGCCGUUCGGGCGGCUAUAAACAGACCUCAGGCCCGAAGCGUGGCGGCACCUGCCGCCGGUGGUAAAAAAGAUCGGAAGAGCACACGUCU | 1.5 |
| GGGUCGGUCCUGCAUAAUCGCGUGGAUAUGGCACGCAAGUUUCUACCGGGCACCGUAAAUGUCCGACUGGAGCCGUUCGGGCGGCUAUAAACAGACCUCAGGCCCGAAGCGUGGCGGCACCUGCCGCCGGUGGUAAAAAAGAUCGGAAGAGCACACGUCU | 1.29 |
| GGGUCGGUCAGCCAUAAUCGCGUGGAUAUGGCACGCAAGUUUCUACCGGGCACCGUAAAUGUCCGACUGGAGCCGUUCGGGCGGCUAUAAACAGACCUCAGGCCCGAAGCGUGGCGGCACCUGCCGCCGGUGGUAAAAAAGAUCGGAAGAGCACACGUCU | 3.08 |
| GGGUCGGUCCUGUAUAAUCGCGUGGAUAUGGCACGCAAGUUUCUACCGGGCACCGUAAAUGUCCGACUGGAGCCGUUCGGGCGGCUAUAAACAGACCUCAGGCCCGAAGCGUGGCGGCACCUGCCGCCGGUGGUAAAAAAGAUCGGAAGAGCACACGUCU | 1.23 |
| GGGUCGGUCCUGGAUAAUCGCGUGGAUAUGGCACGCAAGUUUCUACCGGGCACCGUAAAUGUCCGACUGGAGCCGUUCGGGCGGCUAUAAACAGACCUCAGGCCCGAAGCGUGGCGGCACCUGCCGCCGGUGGUAAAAAAGAUCGGAAGAGCACACGUCU | 1.09 |
| GGGUCGGUCCUGAAUAAUCGCGUGGAUAUGGCACGCAAGUUUCUACCGGGCACCGUAAAUGUCCGACUGGAGCCGUUCGGGCGGCUAUAAACAGACCUCAGGCCCGAAGCGUGGCGGCACCUGCCGCCGGUGGUAAAAAAGAUCGGAAGAGCACACGUCU | 1.31 |
| GGGUCGGUCCUCGAUAAUCGCGUGGAUAUGGCACGCAAGUUUCUACCGGGCACCGUAAAUGUCCGACUGGAGCCGUUCGGGCGGCUAUAAACAGACCUCAGGCCCGAAGCGUGGCGGCACCUGCCGCCGGUGGUAAAAAAGAUCGGAAGAGCACACGUCU | 1.09 |
| GGGUCGGUCCUCAAUAAUCGCGUGGAUAUGGCACGCAAGUUUCUACCGGGCACCGUAAAUGUCCGACUGGAGCCGUUCGGGCGGCUAUAAACAGACCUCAGGCCCGAAGCGUGGCGGCACCUGCCGCCGGUGGUAAAAAAGAUCGGAAGAGCACACGUCU | 1.14 |
| GGGUCGGUCAGAUAUAAUCGCGUGGAUAUGGCACGCAAGUUUCUACCGGGCACCGUAAAUGUCCGACUGGAGCCGUUCGGGCGGCUAUAAACAGACCUCAGGCCCGAAGCGUGGCGGCACCUGCCGCCGGUGGUAAAAAAGAUCGGAAGAGCACACGUCU | 1.14 |
| GGGUCGGUCAGAAAUAAUCGCGUGGAUAUGGCACGCAAGUUUCUACCGGGCACCGUAAAUGUCCGACUGGAGCCGUUCGGGCGGCUAUAAACAGACCUCAGGCCCGAAGCGUGGCGGCACCUGCCGCCGGUGGUAAAAAAGAUCGGAAGAGCACACGUCU | 1.07 |
| GGGUCGGUCAGAGAUAAUCGCGUGGAUAUGGCACGCAAGUUUCUACCGGGCACCGUAAAUGUCCGACUGGAGCCGUUCGGGCGGCUAUAAACAGACCUCAGGCCCGAAGCGUGGCGGCACCUGCCGCCGGUGGUAAAAAAGAUCGGAAGAGCACACGUCU | 1.11 |
| GGGUCGGUCAGGGAUAAUCGCGUGGAUAUGGCACGCAAGUUUCUACCGGGCACCGUAAAUGUCCGACUGGAGCCGUUCGGGCGGCUAUAAACAGACCUCAGGCCCGAAGCGUGGCGGCACCUGCCGCCGGUGGUAAAAAAGAUCGGAAGAGCACACGUCU | 1.08 |
| GGGUCGGUCAGGUAUAAUCGCGUGGAUAUGGCACGCAAGUUUCUACCGGGCACCGUAAAUGUCCGACUGGAGCCGUUCGGGCGGCUAUAAACAGACCUCAGGCCCGAAGCGUGGCGGCACCUGCCGCCGGUGGUAAAAAAGAUCGGAAGAGCACACGUCU | 1.12 |
| GGGUCGGUCAGGAAUAAUCGCGUGGAUAUGGCACGCAAGUUUCUACCGGGCACCGUAAAUGUCCGACUGGAGCCGUUCGGGCGGCUAUAAACAGACCUCAGGCCCGAAGCGUGGCGGCACCUGCCGCCGGUGGUAAAAAAGAUCGGAAGAGCACACGUCU | 1.1 |
| GGGUCGGUCAGUAAUAAUCGCGUGGAUAUGGCACGCAAGUUUCUACCGGGCACCGUAAAUGUCCGACUGGAGCCGUUCGGGCGGCUAUAAACAGACCUCAGGCCCGAAGCGUGGCGGCACCUGCCGCCGGUGGUAAAAAAGAUCGGAAGAGCACACGUCU | 1.18 |
| GGGUCGGUCAGUUAUAAUCGCGUGGAUAUGGCACGCAAGUUUCUACCGGGCACCGUAAAUGUCCGACUGGAGCCGUUCGGGCGGCUAUAAACAGACCUCAGGCCCGAAGCGUGGCGGCACCUGCCGCCGGUGGUAAAAAAGAUCGGAAGAGCACACGUCU | 1.26 |
| GGGUCGGUCAGUGAUAAUCGCGUGGAUAUGGCACGCAAGUUUCUACCGGGCACCGUAAAUGUCCGACUGGAGCCGUUCGGGCGGCUAUAAACAGACCUCAGGCCCGAAGCGUGGCGGCACCUGCCGCCGGUGGUAAAAAAGAUCGGAAGAGCACACGUCU | 1.2 |

| Variant | aptazyme ON/OFF ratio |
| --- | --- |
| GGGUCGGUCCUCCAUAAUCGCGUGGAUAUGGCACGCAAGUUUCUACCGGGCACCGUAAAUGUCCGACUGGAGCCGUUCGGGCGGCUAUAAACAGACCUCAGGCCCGAAGCGUGGCGGCACCUGCCGCCGGUGGUAAAAAAGAUCGGAAGAGCACACGUCU | 2.77 |
| GGGUCGGUCAGGCAUAAUCGCGUGGAUAUGGCACGCAAGUUUCUACCGGGCACCGUAAAUGUCCGACUGGAGCCGUUCGGGCGGCUAUAAACAGACCUCAGGCCCGAAGCGUGGCGGCACCUGCCGCCGGUGGUAAAAAAGAUCGGAAGAGCACACGUCU | 1.41 |
| GGGUCGGUCAGACAUAAUCGCGUGGAUAUGGCACGCAAGUUUCUACCGGGCACCGUAAAUGUCCGACUGGAGCCGUUCGGGCGGCUAUAAACAGACCUCAGGCCCGAAGCGUGGCGGCACCUGCCGCCGGUGGUAAAAAAGAUCGGAAGAGCACACGUCU | 1.15 |
| GGGUCGGUCAGUCAUAAUCGCGUGGAUAUGGCACGCAAGUUUCUACCGGGCACCGUAAAUGUCCGACUGGAGCCGUUCGGGCGGCUAUAAACAGACCUCAGGCCCGAAGCGUGGCGGCACCUGCCGCCGGUGGUAAAAAAGAUCGGAAGAGCACACGUCU | 1.43 |
| GGGUCGGUCACUUAUAAUCGCGUGGAUAUGGCACGCAAGUUUCUACCGGGCACCGUAAAUGUCCGACUGGAGCCGUUCGGGCGGCUAUAAACAGACCUCAGGCCCGAAGCGUGGCGGCACCUGCCGCCGGUGGUAAAAAAGAUCGGAAGAGCACACGUCU | 1.18 |
| GGGUCGGUCACUGAUAAUCGCGUGGAUAUGGCACGCAAGUUUCUACCGGGCACCGUAAAUGUCCGACUGGAGCCGUUCGGGCGGCUAUAAACAGACCUCAGGCCCGAAGCGUGGCGGCACCUGCCGCCGGUGGUAAAAAAGAUCGGAAGAGCACACGUCU | 1.19 |
| GGGUCGGUCAGCGAUAAUCGCGUGGAUAUGGCACGCAAGUUUCUACCGGGCACCGUAAAUGUCCGACUGGAGCCGUUCGGGCGGCUAUAAACAGACCUCAGGCCCGAAGCGUGGCGGCACCUGCCGCCGGUGGUAAAAAAGAUCGGAAGAGCACACGUCU | 1.14 |
| GGGUCGGUCAGCAAUAAUCGCGUGGAUAUGGCACGCAAGUUUCUACCGGGCACCGUAAAUGUCCGACUGGAGCCGUUCGGGCGGCUAUAAACAGACCUCAGGCCCGAAGCGUGGCGGCACCUGCCGCCGGUGGUAAAAAAGAUCGGAAGAGCACACGUCU | 1.13 |
| GGGUCGGUCAGCUAUAAUCGCGUGGAUAUGGCACGCAAGUUUCUACCGGGCACCGUAAAUGUCCGACUGGAGCCGUUCGGGCGGCUAUAAACAGACCUCAGGCCCGAAGCGUGGCGGCACCUGCCGCCGGUGGUAAAAAAGAUCGGAAGAGCACACGUCU | 1.4 |
| GGGUCGGUCACCUAUAAUCGCGUGGAUAUGGCACGCAAGUUUCUACCGGGCACCGUAAAUGUCCGACUGGAGCCGUUCGGGCGGCUAUAAACAGACCUCAGGCCCGAAGCGUGGCGGCACCUGCCGCCGGUGGUAAAAAAGAUCGGAAGAGCACACGUCU | 1.14 |
| GGGUCGGUCACCGAUAAUCGCGUGGAUAUGGCACGCAAGUUUCUACCGGGCACCGUAAAUGUCCGACUGGAGCCGUUCGGGCGGCUAUAAACAGACCUCAGGCCCGAAGCGUGGCGGCACCUGCCGCCGGUGGUAAAAAAGAUCGGAAGAGCACACGUCU | 1.09 |
| GGGUCGGUCACCAAUAAUCGCGUGGAUAUGGCACGCAAGUUUCUACCGGGCACCGUAAAUGUCCGACUGGAGCCGUUCGGGCGGCUAUAAACAGACCUCAGGCCCGAAGCGUGGCGGCACCUGCCGCCGGUGGUAAAAAAGAUCGGAAGAGCACACGUCU | 1.21 |
| GGGUCGGUCCUUAAUAAUCGCGUGGAUAUGGCACGCAAGUUUCUACCGGGCACCGUAAAUGUCCGACUGGAGCCGUUCGGGCGGCUAUAAACAGACCUCAGGCCCGAAGCGUGGCGGCACCUGCCGCCGGUGGUAAAAAAGAUCGGAAGAGCACACGUCU | 1.21 |
| GGGUCGGUCCUUGAUAAUCGCGUGGAUAUGGCACGCAAGUUUCUACCGGGCACCGUAAAUGUCCGACUGGAGCCGUUCGGGCGGCUAUAAACAGACCUCAGGCCCGAAGCGUGGCGGCACCUGCCGCCGGUGGUAAAAAAGAUCGGAAGAGCACACGUCU | 1.21 |
| GGGUCGGUCCUUUAUAAUCGCGUGGAUAUGGCACGCAAGUUUCUACCGGGCACCGUAAAUGUCCGACUGGAGCCGUUCGGGCGGCUAUAAACAGACCUCAGGCCCGAAGCGUGGCGGCACCUGCCGCCGGUGGUAAAAAAGAUCGGAAGAGCACACGUCU | 1.34 |
| GGGUCGGUCCUAUAUAAUCGCGUGGAUAUGGCACGCAAGUUUCUACCGGGCACCGUAAAUGUCCGACUGGAGCCGUUCGGGCGGCUAUAAACAGACCUCAGGCCCGAAGCGUGGCGGCACCUGCCGCCGGUGGUAAAAAAGAUCGGAAGAGCACACGUCU | 1.36 |
| GGGUCGGUCCUAGAUAAUCGCGUGGAUAUGGCACGCAAGUUUCUACCGGGCACCGUAAAUGUCCGACUGGAGCCGUUCGGGCGGCUAUAAACAGACCUCAGGCCCGAAGCGUGGCGGCACCUGCCGCCGGUGGUAAAAAAGAUCGGAAGAGCACACGUCU | 1.16 |
| GGGUCGGUCCUAAAUAAUCGCGUGGAUAUGGCACGCAAGUUUCUACCGGGCACCGUAAAUGUCCGACUGGAGCCGUUCGGGCGGCUAUAAACAGACCUCAGGCCCGAAGCGUGGCGGCACCUGCCGCCGGUGGUAAAAAAGAUCGGAAGAGCACACGUCU | 1.16 |
